Assay [1] concerns the target T1, Activin A (UniProt P08476 311-426).
T1 sequence (looked up): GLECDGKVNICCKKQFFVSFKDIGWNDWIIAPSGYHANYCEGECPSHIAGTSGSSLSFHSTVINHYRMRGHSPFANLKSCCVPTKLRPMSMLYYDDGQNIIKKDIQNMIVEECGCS
Nature of the assay: SPR (Biacore 8K), Fc protein captured on anti-human IgG, ligand injected. The procedure: (§1) The Cytiva Biacore 8k was used to measure the kinetics of the interactions between the ActRII- and chimera-Fc proteins and Activin A/Activin B/growth differentiation factor 8 (GDF-8)/GDF-11/BMP-9/BMP-10. Series S CM4 Sensor Chips were immobilized with anti-human capture antibody using the reagents and protocol in the Biacore Human Antibody Capture Kit (GE Life Sciences). Briefly, anti-human IgG was diluted to 25 μg/mL in immobilization buffer. The carboxylated surface of the sensor was activated by injecting a mixture of EDC and NHS. The anti-human IgG was injected into the activated sensor chip flow cells at 10 μL/min for a total of 7 minutes until the chip reached an immobilization level of 3000 resonance units (RU). Ethanolamine was injected to deactivate the sensor surfaces. The chip has 8 flow cells to be used for binding analysis, each with an in-line reference surface to subtract instrument noise and non-specific binding to the sensor chip. The ActRII- and chimera-Fc proteins were captured in their own flow cell to allow for a maximum analyte binding response of 20-30 RU. This was done by injecting 10-20 μL of the ActRII- and chimera-Fc proteins into the flow cells at a concentration of 2 μg/mL until 60-90 RU was captured. Ligand at a single concentration was injected at […] for 60 seconds and then allowed to dissociate under buffer flow for no less than 5 minutes. After the cycle completed, captured protein was stripped from the chip with an injection of 3 M magnesium chloride, the regeneration buffer provided with the Biacore Human Antibody Capture Kit. Each ligand was injected in a concentration series, including a buffer only 0 nM concentration to serve as a double reference for subtracting out instrument noise. The data were analyzed using the Biacore Insight Evaluation Software.
(In general: In SPR one partner is held on a chip, and binding of the other changes the refractive index at the surface.)

Assay [2] concerns the target T2, Activin B (UniProt P09529 293-407).
T2 sequence (looked up): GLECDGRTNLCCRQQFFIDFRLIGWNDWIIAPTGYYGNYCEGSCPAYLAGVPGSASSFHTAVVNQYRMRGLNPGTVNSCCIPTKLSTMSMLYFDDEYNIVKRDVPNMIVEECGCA
The description is as above. On the procedure: as §1

Assay [3] deals with T1, Activin A. Kind of assay: cell-based or functional assay.
The target in assay [4] is T2, Activin B. Nature of the assay: cell-based or functional assay.
In assay [5] the target is T3, GDF-11 (UniProt O95390 299-407).
T3 sequence (looked up): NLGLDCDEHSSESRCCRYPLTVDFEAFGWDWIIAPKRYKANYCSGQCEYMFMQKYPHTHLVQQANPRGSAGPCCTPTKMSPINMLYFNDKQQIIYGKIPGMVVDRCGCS
Kind of assay: cell-based or functional assay.

For assay [6], the target named is T4, BMP-9 (UniProt Q9UK05 320-429).
T4 sequence (looked up): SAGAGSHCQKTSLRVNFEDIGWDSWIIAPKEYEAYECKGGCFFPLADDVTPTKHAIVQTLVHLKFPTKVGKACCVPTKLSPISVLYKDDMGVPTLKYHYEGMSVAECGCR
Nature of the assay: cell-based or functional assay.

Assay [7] deals with T5, growth differentiation factor 8 (GDF-8) (UniProt O14793 267-375).
T5 construct: also called myostatin
T5 sequence (looked up): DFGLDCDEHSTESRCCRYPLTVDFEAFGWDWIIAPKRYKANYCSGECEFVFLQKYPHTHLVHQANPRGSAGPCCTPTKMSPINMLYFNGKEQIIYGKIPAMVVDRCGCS
Kind of assay: SPR (Biacore 8K), Fc protein captured on anti-human IgG, ligand injected. On the procedure:
as §1

Assay [8] addresses T3, GDF-11. The description is as above. On the procedure:
as §1

Assay [9] deals with T4, BMP-9. The assay is described as above. On the procedure: as §1
Assay [10] has as its target T6, BMP-10 (UniProt O95393 317-424).
T6 sequence (looked up): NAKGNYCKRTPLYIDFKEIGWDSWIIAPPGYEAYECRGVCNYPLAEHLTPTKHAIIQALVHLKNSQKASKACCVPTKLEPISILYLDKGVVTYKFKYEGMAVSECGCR
The assay is described as above. The procedure:
as §1

B1: ActRIIB (SEQ ID NO: 31) Fc protein (Fc fusion)
chain: GRGEAETRECIYYNANWELERTNQSGLERCEGEQDKRLHCYASWRNSSGTIELVKKGCWLDDFNCYDRQECVATEENPQVYFCCCEGNFCNERFTHLPEAGGPEVTYEPPPTAPT
notes: also called ActRII-Fc; wild-type extracellular ActRIIB; not shown: linker (if any) and Fc domain
B1: the Kd (usually the equilibrium constant for the complex coming apart) was 0.0106 nM in assay [1] and less than 0.001 nM in assay [2].

B2: ActRIIB-A5 (SEQ ID NO: 123) chimera-Fc protein (Fc fusion)
chain: GRGEAETRECIYYNANWELERTNQSGLERCEGEQDKRLHCYASWRNSSGTIELVKKGCWLDDINCYDRTDCVATEENPQVYFCCCEGNFCNERFTHLPEAGGPEVTYEPPPTAPT
notes: Tested as chimera-Fc protein; not shown: linker (if any) and Fc domain
B2: the “IC50, SBE-luciferase reporter in HEK293 cells” value (“IC50, SBE-luciferase reporter” for short) in assay [3] was determined as 0.057 µg/mL; in [4], 0.072 µg/mL; in [5], 0.13 µg/mL. In [6], the “IC50, BRE-luciferase reporter in C2C12 cells” value (shortened to “IC50, BRE-luciferase reporter”) amounted to 0.4 µg/mL. In addition, the Kd was found to be 0.0228 nM in assay [1]; 0.00491 nM in assay [2]; 0.0165 nM in [7]; 0.00566 nM in assay [8]; 0.143 nM in [9]; 0.0152 nM in assay [10].

B3: ActRIIB-A7 (SEQ ID NO: 125) chimera-Fc protein (Fc fusion)
chain: GRGEAETRECIYYNANWELERTNQSGLERCEGEQDKRLHCYASWRNSSGTIELVKKGCWLDDFNCYDRQECVATEENPQVYFCCCEGNMCNERFTHLPEAGGPEVTYEPPPTAPT
notes: as for B2
Turning to B3, the “IC50, SBE-luciferase reporter” value came out at 0.057 µg/mL in [3], 0.073 µg/mL in assay [4] and 0.13 µg/mL in [5]. For the same molecule, the “IC50, BRE-luciferase reporter” value in assay [6] came to 0.061 µg/mL. For the same molecule, the Kd in [1] was 0.0169 nM; in assay [2], less than 0.001 nM; in [7], less than 0.001 nM; in [8] it was less than 0.001 nM; in assay [9], 0.0191 nM; in [10] it was 0.00872 nM.

B4: ActRIIB-A6 (SEQ ID NO: 124) chimera-Fc protein (Fc fusion)
chain: GRGEAETRECIYYNANWELERTNQSGLERCEGEQDKRLHCYASWRNSSGTIELVKKGCWLDDFNCYDRQECVATKDSPEVYFCCCEGNFCNERFTHLPEAGGPEVTYEPPPTAPT
notes: as for B2
For B4, the “IC50, SBE-luciferase reporter” value in assay [3] was 0.089 µg/mL; in [4], 0.14 µg/mL; in assay [5], 0.25 µg/mL. Moreover, in assay [6], the “IC50, BRE-luciferase reporter” value was determined as 0.23 µg/mL. The Kd in assay [1] was 0.0104 nM; in assay [2], 0.001 nM; in assay [7], 0.0288 nM; in assay [8], less than 0.001 nM; in [9], 0.00962 nM; in assay [10], 0.00969 nM.

B5: ActRIIB-A3 (SEQ ID NO: 122) chimera-Fc protein (Fc fusion)
chain: GRGEAETRECIYYNANWELERTNQSGLERCYGDKDKRLHCYASWRNSSGTIELVKKGCWLDDFNCYDRQECVATEENPQVYFCCCEGNFCNERFTHLPEAGGPEVTYEPPPTAPT
notes: as for B2
Take B5: the results for the “IC50, SBE-luciferase reporter” value in assay [3], in assay [4] and in assay [5] were 0.056 µg/mL, 0.075 µg/mL and 0.15 µg/mL, respectively. In assay [6], the “IC50, BRE-luciferase reporter” value was 0.1 µg/mL. Moreover, the Kd was 0.0165 nM in assay [1]; less than 0.001 nM in assay [2]; less than 0.001 nM in assay [7]; less than 0.001 nM in assay [8]; 0.0123 nM in assay [9]; 0.0159 nM in [10].

B6: ActRIIB-B1B7 (SEQ ID NO: 116) chimera-Fc protein (Fc fusion)
chain: GRGEAETRECLFFNANWELERTNQSGLERCEGEQDKRLHCYASWRNSSGTIELVKKGCWLDDFNCYDRQECVATEENPQVYFCCCEGNFCNEKFSYFPEAGGPEVTYEPPPTAPT
notes: as for B2
Regarding B6, the “IC50, SBE-luciferase reporter” value in [3] worked out at 0.094 µg/mL; in assay [4] it was 0.18 µg/mL; in assay [5] it was 0.14 µg/mL. In addition, the “IC50, BRE-luciferase reporter” value in assay [6] is 0.067 µg/mL. Besides, the Kd was less than 0.001 nM in assay [1]; less than 0.001 nM in assay [2]; 0.00353 nM in [7]; less than 0.001 nM in [8]; 18.6 nM in assay [9]; 0.0156 nM in assay [10].

B7: ActRIIB-B1B4 (SEQ ID NO: 117) chimera-Fc protein (Fc fusion)
chain: GRGEAETRECLFFNANWELERTNQSGLERCEGEQDKRLHCYASWRNSSGSIEIVKQGCWLDDFNCYDRQECVATEENPQVYFCCCEGNFCNERFTHLPEAGGPEVTYEPPPTAPT
notes: as for B2
Regarding B7, the “IC50, SBE-luciferase reporter” value in assay [3] stood at 0.35 µg/mL; in assay [4], 0.34 µg/mL; in assay [5], 0.77 µg/mL. In addition, the “IC50, BRE-luciferase reporter” value in assay [6] was found to be 0.39 µg/mL. Also, the Kd in assay [1] came out at 0.0108 nM; in assay [2], 0.0702 nM; in assay [7] it was 0.0718 nM; in assay [8], 0.0292 nM; in assay [9], 0.0398 nM; in [10] it was 0.0761 nM.

B8: ActRIIB-A2 (SEQ ID NO: 121) chimera-Fc protein (Fc fusion)
chain: GRGEAETRECIYYNANWEKDRTNQSGLERCEGEQDKRLHCYASWRNSSGTIELVKKGCWLDDFNCYDRQECVATEENPQVYFCCCEGNFCNERFTHLPEAGGPEVTYEPPPTAPT
notes: as for B2
For B8, the “IC50, SBE-luciferase reporter” value in assay [3] is 0.078 µg/mL; in assay [4], 0.13 µg/mL; in [5] it was 0.3 µg/mL. Moreover, the “IC50, BRE-luciferase reporter” value in assay [6] amounted to 0.082 µg/mL. Besides, the Kd in assay [1] is 0.0347 nM; in assay [2] it was 0.00878 nM; in [7], 0.0393 nM; in assay [8], less than 0.001 nM; in assay [9], 0.0166 nM; in [10] it was 0.0298 nM.

B9: ActRIIB-B2 (SEQ ID NO: 111) chimera-Fc protein (Fc fusion)
chain: GRGEAETRECIYYNANWELERTNQTGVEPCEGEQDKRLHCYASWRNSSGTIELVKKGCWLDDFNCYDRQECVATEENPQVYFCCCEGNFCNERFTHLPEAGGPEVTYEPPPTAPT
notes: as for B2
On to B9, for which the “IC50, SBE-luciferase reporter” value was determined as 0.14 µg/mL in [3], 0.17 µg/mL in [4] and 0.27 µg/mL in assay [5]. Moreover, the “IC50, BRE-luciferase reporter” value in [6] was 0.3 µg/mL. The Kd in [1] was less than 0.001 nM; in [2] it was 0.0116 nM; in assay [7], less than 0.001 nM; in assay [8], less than 0.001 nM; in [9], 0.00327 nM; in assay [10] it was 0.0205 nM.

B10: ActRIIB-B3 (SEQ ID NO: 112) chimera-Fc protein (Fc fusion)
chain: GRGEAETRECIYYNANWELERTNQSGLERCEGEQDKRRHCFATWKNISGTIELVKKGCWLDDFNCYDRQECVATEENPQVYFCCCEGNFCNERFTHLPEAGGPEVTYEPPPTAPT
notes: as for B2
Turning to B10, the “IC50, SBE-luciferase reporter” value in assay [3] turned out to be 0.07 µg/mL; in [4] it was 0.096 µg/mL; in assay [5], 0.14 µg/mL. Further, the “IC50, BRE-luciferase reporter” value in assay [6] amounted to 0.41 µg/mL. In addition, the Kd was 0.00152 nM in assay [1]; 0.00581 nM in assay [2]; 0.0104 nM in assay [7]; 0.00117 nM in assay [8]; 0.361 nM in assay [9]; 0.175 nM in assay [10].

B11: ActRIIB-A1 (SEQ ID NO: 120) chimera-Fc protein (Fc fusion, not shown: a dimerising Fc or GST)
chain: GAILGRSETQECIYYNANWELERTNQSGLERCEGEQDKRLHCYASWRNSSGTIELVKKGCWLDDFNCYDRQECVATEENPQVYFCCCEGNFCNERFTHLPEAGGPEVTYEPPPTAPT
B11: the “IC50, SBE-luciferase reporter” value in assay [3] stood at 0.075 µg/mL; in assay [4], 0.072 µg/mL; in assay [5], 0.14 µg/mL. Further, the “IC50, BRE-luciferase reporter” value in [6] came to 0.14 µg/mL.

These data come from patent publication US20250270287A1 (KEROS THERAPEUTICS, published 2025).
